Laboratory results from article PMC8303762.

Biological target: insulin-like growth factor-1 receptor (IGF-1R) on MCF-7 cells (human (endogenous in MCF-7)) (UniProt P08069)
UniProt P08069, sequence (P08069 31-1367): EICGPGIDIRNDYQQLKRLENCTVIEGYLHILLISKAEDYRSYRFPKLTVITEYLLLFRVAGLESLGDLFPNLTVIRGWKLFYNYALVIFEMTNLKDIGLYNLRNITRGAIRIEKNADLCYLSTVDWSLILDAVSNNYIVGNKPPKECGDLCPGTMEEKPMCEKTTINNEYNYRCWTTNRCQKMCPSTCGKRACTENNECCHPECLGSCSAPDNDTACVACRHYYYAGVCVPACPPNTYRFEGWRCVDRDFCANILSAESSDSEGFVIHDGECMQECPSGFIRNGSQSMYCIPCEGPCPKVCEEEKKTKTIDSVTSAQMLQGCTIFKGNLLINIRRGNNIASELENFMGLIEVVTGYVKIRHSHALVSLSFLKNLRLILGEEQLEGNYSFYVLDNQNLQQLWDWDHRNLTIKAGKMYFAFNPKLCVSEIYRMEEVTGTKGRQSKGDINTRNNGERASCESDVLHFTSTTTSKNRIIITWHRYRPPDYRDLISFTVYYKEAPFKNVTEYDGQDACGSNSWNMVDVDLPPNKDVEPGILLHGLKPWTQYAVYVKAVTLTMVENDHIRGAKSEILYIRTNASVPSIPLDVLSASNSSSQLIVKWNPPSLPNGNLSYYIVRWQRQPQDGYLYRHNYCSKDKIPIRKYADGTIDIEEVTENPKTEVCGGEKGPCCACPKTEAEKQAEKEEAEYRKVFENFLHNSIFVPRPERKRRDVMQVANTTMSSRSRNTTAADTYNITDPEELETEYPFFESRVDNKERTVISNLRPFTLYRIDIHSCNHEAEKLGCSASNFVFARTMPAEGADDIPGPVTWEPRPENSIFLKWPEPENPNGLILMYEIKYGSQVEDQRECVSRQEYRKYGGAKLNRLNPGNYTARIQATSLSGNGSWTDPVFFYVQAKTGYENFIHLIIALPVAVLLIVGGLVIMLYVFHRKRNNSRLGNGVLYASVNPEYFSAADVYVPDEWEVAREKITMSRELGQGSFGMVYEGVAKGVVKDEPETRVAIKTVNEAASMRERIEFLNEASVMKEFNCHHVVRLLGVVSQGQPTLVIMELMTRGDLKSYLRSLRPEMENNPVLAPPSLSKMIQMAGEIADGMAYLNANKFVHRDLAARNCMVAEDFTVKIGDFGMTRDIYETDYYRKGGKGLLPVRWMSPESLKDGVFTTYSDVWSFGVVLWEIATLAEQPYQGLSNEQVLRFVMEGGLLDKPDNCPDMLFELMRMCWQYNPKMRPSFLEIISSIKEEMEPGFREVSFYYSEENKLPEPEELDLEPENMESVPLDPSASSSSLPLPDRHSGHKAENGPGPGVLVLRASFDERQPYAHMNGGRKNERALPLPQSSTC

recombinant human vimentin, sequence (P08670 whole entry): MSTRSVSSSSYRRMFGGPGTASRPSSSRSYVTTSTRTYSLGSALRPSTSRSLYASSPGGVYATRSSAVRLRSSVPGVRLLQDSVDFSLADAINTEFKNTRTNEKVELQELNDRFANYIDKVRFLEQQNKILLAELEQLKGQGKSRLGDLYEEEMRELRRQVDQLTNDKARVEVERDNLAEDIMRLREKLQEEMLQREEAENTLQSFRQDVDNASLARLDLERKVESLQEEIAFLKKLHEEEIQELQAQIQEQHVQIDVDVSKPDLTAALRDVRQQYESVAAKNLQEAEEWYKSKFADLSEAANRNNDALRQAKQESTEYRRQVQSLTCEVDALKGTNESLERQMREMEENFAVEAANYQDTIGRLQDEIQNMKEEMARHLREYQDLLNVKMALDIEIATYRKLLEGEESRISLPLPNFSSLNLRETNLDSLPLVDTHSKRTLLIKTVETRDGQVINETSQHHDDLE

- MTT proliferation of MCF-7 cells treated with recombinant human vimentin (0, 50, 100, 200 ng/mL), 72 h; value printed for 100 ng/mL: > 20%
Substance: recombinant human vimentin (from UniProt P08670 1-466) (natural protein)
